From the DeepSol protein solubility set

experiment: soluble on expression in E. coli; label from the status in PepcDB or PDB records

Sequence	soluble on expression in E. coli
GPGSMGTRQSSASAAPAPQASNGALHLNKLNVPTPPRIAATESPFGSNTPLAKTPTPTAATATATAAVSGEHAKRFQEALRVDSVDMALLRELSWQGCPVALRYEAWMFLTGCWTAQAATRQATVLRRRVEYAAYIHSSYGIVDWDAVCAMVDSGVDTAVHRSTLKLLEHTADAPQVAPPSGTSHSLLRVAPLTTGDSTAMAAKEAAAALPPSLSQRPDGRQSASLPLEDVRSRLPQNTSGSDAPQPSQLSPPQSADIRSASPSLGIVPAPSDSSFRASASAGFTDTAGTGPASHPSIFAPPLPGFATLGLSNVVAATAAPPAASGGAGGATGHQLSASTMLGSKELQTLKQIRKDIPRMSGGHCYLRHPRVQGSIERILFIWSLRHPACGYVQGMNDLVVPFMGVVLGYRFCPTHSVTELHAYTEDIFDDLWSVSAVSVTQWINEVEADVYWMTSYLLNTMQDNYTSSHAGITSMMRHLAAVVQVADPPLYHRLVNVLQLHFEQFSFRWMNCLLIRELTETQSLRLLDAYLSDEERRWSVTHVYVCAALLLRWGSQLMAFCEDYISVMKLLQEPPTEQLSLRDMQDVLSEGFVLQNLYEASLKRLSTTAE	not soluble
GPGSMHFPALFPEPLATAHASRLHPFPWSSSYESIFLCPPTSLCSSAASMTQPTLTEDELDDALGLAIRAANTAAFISNSVIDDKTNNIVEAQTRNNPNDLVTQCEKHCKEEVLNILRVGTPSYAILSDDMHSEAVLGDGPTWIVGPIDGTVSFKHGLFDFCISIALALRKEPILGVVCAPRLQEVFTAVNNRGAFSNGQRIHVSLVDSLRQSVVLLHHSGTRSDAAVRSVAAMQAELAKLPVQGLRCNGSAALDMCLVAAGRAELFWKAGVNPWNVAAGVIIVREAGGVVHDVESTDSFDLTCRSVCCGCSLDVTKHGVELSLKHNYRSSVLNTSS	not soluble
GPGSMHPGLPRAFPDTEWQTVADIFRRRAPVSFLAPNSSASATADPAAAAEAWVQQEIGYYEANYTTVEDLNVCVTTFNVGCKKPVLPLTSLACLTSGGGGADGAPVRPTDLIVVGLQEVDMSATALFKQETEASAPWVAGLNAAIGASRCSSTAASSSSGAGASPYYAFPPKQLVGLLLCVFIRRPLLSAVSESSTATVATGALGSMGNKGAVGFHLVLHRTSICIITAHLAAGQSNVSKRNEDINTILKSMDFNAARRAEMQISASASMPMDESVFLELHPRDHDIIIVAGDLNYRLRLPYETAVHLANAGQFSELLQYDELATEMKSPHTPWLNFINFTPTHMPTYRFDIGTDAYDTSEKRRVPSYTDRICMWSRRKSMESRVRLDRLSALMEVRSSDHKPVQALARIPISVEVPAQKAQVISSLREKVAAVGLAQASSAKISLSTSKVNFQAQSFHHCGAQETVTVQNSGDCVAVVRVVRQREGDYSEGTWLRATPLELAILPGESQDVVIETAIDPRCMTWLAAWSPYQGRGRVSLTSVLLFCCRNGPVQAVECQCLLSPSVFGNGLDSIALLQDKPCVEAYAQKADFEEVVRQVRPHVPKELWYLAHVIAQHPREGGLFTRSTDKDVCCRIMELLDTKNAPLPAGTDVHCAAECLLAFLKNLLEPVVPYAQYTTALAAGRAKGKAPLQFLRQLPTMHANVWIYVMSLLNYLLRPVHSCDNELDANFLAHIFSAVLIVRPTNAQGAIPARLQQGGGVDQQVRQQLQQESDDALALVAYFLSTPPSMLAGVE	not soluble
GPGSMIKIHTEKDFIKMRAAGKLAAETLDFITDHVKPNVTTNSLNDLCHNFITSHNAIPAPLNYKGFPKSICTSINHVVCHGIPNDKPLKNGDIVNIDVTVILDGWYGDTSRMYYVGDVAIKPKRLIQVTYDAMMKGIEVVRPGAKLGDIGYAIQSYAEKHNYSVVRDYTGHGIGRVFHDKPSILNYGRNGTGLTLKEGMFFTVEPMINAGNYDTILSKLDGWTVTTRDKSLSAQFEHTIGVTKDGFEIFTLSPKKLDYPPY	soluble
GPGSMIRRYSLAIGGSCCCPAPRLISTEAFVSSVEKVQHQLGTSERKQDLILHGRQLFENESLDDIHSAWTPVVAGKICHAATQLRISPTKGQPFGAVVGLSLTPEAVGVMDAPSLARIAHSCLILRSPHLYEVLFTYIRRLITLAATLDTVSCAVLINAYGRAQVHHEEFYKVICDRAAVVMKDPRTFVAHTANVAHALSRVRYFHRDLFLTLRDQAERQASQGPPLVAVTILDGFAEIGFVDDALFTALEQRLLGELAELPAPLMASLVSCLAKAGRAPSPLFTACGERIVAIGNTFDSNSIAKTCDAFYRANVPAEEVLGTLAERACKVVADFRPDEINQTLSSLASFDLFDGELFPLLASRFVSIVKQGGYVSPVDAAGILTSFAVVQERSDELVHVCTQLLSVHRDALDGITLLQTLWACVTLNVRNEAQQNLLQCLSSGAVVLPDEASAEKESKVVLERLLFVKKAYGLQ	not soluble
GPGSMLGSPLFPVAMDSFFDEDECERLGVWEDPRCLRAAEYTQCVATIRALIEQYGVAAAPLHTVKDAAQFLRFEASSAVSHPPMRESAVSYTVKSYGEASKKCVSEANNIVLSSLCMNDACVAGNAADGTDVALEKVFIVCEGFLIFGYPELCNMFDFFVFVHSDNETACLRRFFRGSRRKKRKPQGGNCDRILRMRTSRVNAELWSSEGAAANKTLSPSFSSVLPHLKYMPPQPSSPNDYQGFWLQSEYKELPPPMPFGMSGLKAPPYDWLEVKDLQYVKQMLHQWANASCVDDVEGVLGRYFEFRYWFYYEVLFYHYQLRGISEENVTTACQAKGTTKTSPSQSVLHIKNDASVSCVMLDSQLLALAQQVSGDLINGEGEVRLLLGWN	not soluble
GPGSMLHRSLACFAVPADRKAFMELVKTLRYRTEAPISDCSAALKETDGDMDAAMQVLRKRGAARAMKKGDRVTEHGFVVSCVGSTPQSGAAIVTICSETDFAARNEHFQRVCMQVRDQLCKLMDATNGAVLANPEEAVKHLSDVMAEELRVAIAVLGENMRVRSIAPLVPAPHVSERLLIGSYTHGSLNVDNVGRIVGLVALSQVRENEVVPKDVLTSVGRHFVATSGAEGNYAHQNFFGSETETVGKWLKQRGLKFSSSLVQEFGKEPVVHTAPEPHR	not soluble
GPGSMLSRIKKQQAETRDAAGQSHSSGGGPSTASSEPVAILRLKKDLDNLDGIRSTIDIPDPQNMLRMKVTVRPPYPSIWQGGIFEFLLEFREDYPYEGPRVRYLGPYRIWHPNIEGDEYMEGEGGLRGDVKNTWGVCLSFQTEWKPTMSLRDIIIMIELLFQDPNPDDPLHGTAKQAAQMMKDNPAKFRDKARRWMRGGYIE	soluble
GPGSMNCVQQGKVNVIADNLIPDGKMTEMIIVMKSSVSARANGECLPCDAAQLCEDLTEDIIPYVDNHYRTDADRDNRAIAGLYMGSIQASRLCITRHDLFAYPGMFSGFLSSNWNGIGTDSDHIEALRCDPAAFQAAMKVLFRCIGDDNTYRAAFEADNALLAELGAACERRIYAGSHSWQVWRQAAADFPPMLFKDLSFFPRH	not soluble
GPGSMPASASTRTVGDSSKNASTSSVTNAVKDPNVTLSRADVEAAFAFFDLHNHKCLKPATLKERLSAFYPNMTSSEYKFLLDEASGAPFTVDTLWNIIDNFNTTRTAMPPAVAGSLRFDPIREAFRIYDPQGSGSVDVVVLADIMKTIGFGDLSPNELTLLIRPADFDNDGKISLEDFMNFLSNHR	soluble
